Reference: patent US6057123, “Stem cell inhibiting proteins” (British Biotech Pharmaceuticals Limited, dated 2000)

B1: LD78 Leu-Ser-Ala-Ser1>Pro Gly38>Ser Ser46>Gly (Mutant 35) (ligand)
chain: LSAPLAADTPTACCFSYTSRQIPQNFIADYFETSSQCSKPSVIFLTKRGRQVCADPSEEWVQKYVSDLELSA
B2: LD78 Lys44>Glu Arg45>Gln (Mutant 2) (ligand)
chain: SLAADTPTACCFSYTSRQIPQNFIADYFETSSQCSKPGVIFLTEQSRQVCADPSEEWVQKYVSDLELSA
B3: LD78 Ile24>Ala (Mutant 38) (ligand)
chain: SLAADTPTACCFSYTSRQIPQNFAADYFETSSQCSKPGVIFLTKRSRQVCADPSEEWVQKYVSDLELSA
B4: LD78 Glu66>Ser (Mutant 52) (ligand)
chain: SLAADTPTACCFSYTSRQIPQNFIADYFETSSQCSKPGVIFLTKRSRQVCADPSEEWVQKYVSDLSLSA
B5: LD78 Arg17>Ser Gln18>Glu (Mutant 30) (ligand)
chain: SLAADTPTACCFSYTSSEIPQNFIADYFETSSQCSKPGVIFLTKRSRQVCADPSEEWVQKYVSDLELSA
B6: LD78 Tyr27>Ala (Mutant 66) (ligand)
chain: SLAADTPTACCFSYTSRQIPQNFIADAFETSSQCSKPGVIFLTKRSRQVCADPSEEWVQKYVSDLELSA
B7: human LD78 (wild type, recombinant, expressed from a synthetic gene in yeast) (ligand)
chain: SLAADTPTACCFSYTSRQIPQNFIADYFETSSQCSKPGVIFLTKRSRQVCADPSEEWVQKYVSDLELSA
B8: LD78 Phe12>Gln (Mutant 11) (ligand)
chain: SLAADTPTACCQSYTSRQIPQNFIADYFETSSQCSKPGVIFLTKRSRQVCADPSEEWVQKYVSDLELSA
B9: LD78 Arg17>Ser (Mutant 5) (ligand)
chain: SLAADTPTACCFSYTSSQIPQNFIADYFETSSQCSKPGVIFLTKRSRQVCADPSEEWVQKYVSDLELSA
B10: LD78 Glu29>Arg (Mutant 28) (ligand)
chain: SLAADTPTACCFSYTSRQIPQNFIADYFRTSSQCSKPGVIFLTKRSRQVCADPSEEWVQKYVSDLELSA
B11: LD78 Ser1>Ala (Mutant 54) (ligand)
chain: ALAADTPTACCFSYTSRQIPQNFIADYFETSSQCSKPGVIFLTKRSRQVCADPSEEWVQKYVSDLELSA
B12: LD78 Lys44>Ser (Mutant 42) (ligand)
chain: SLAADTPTACCFSYTSRQIPQNFIADYFETSSQCSKPGVIFLTSRSRQVCADPSEEWVQKYVSDLELSA
B13: LD78 Asp5>Ser (Mutant 37) (ligand)
chain: SLAASTPTACCFSYTSRQIPQNFIADYFETSSQCSKPGVIFLTKRSRQVCADPSEEWVQKYVSDLELSA
B14: LD78 Ser35>Ala (Mutant 68) (ligand)
chain: SLAADTPTACCFSYTSRQIPQNFIADYFETSSQCAKPGVIFLTKRSRQVCADPSEEWVQKYVSDLELSA
B15: LD78 Phe28>Glu Arg47>Glu (Mutant 26) (ligand)
chain: SLAADTPTACCFSYTSRQIPQNFIADYEETSSQCSKPGVIFLTKRSEQVCADPSEEWVQKYVSDLELSA
B16: LD78 Ser13>Ala (Mutant 62) (ligand)
chain: SLAADTPTACCFAYTSRQIPQNFIADYFETSSQCSKPGVIFLTKRSRQVCADPSEEWVQKYVSDLELSA
B17: LD78 Asp26>Ala (Mutant 10) (ligand)
chain: SLAADTPTACCFSYTSRQIPQNFIAAYFETSSQCSKPGVIFLTKRSRQVCADPSEEWVQKYVSDLELSA
B18: LD78 Val39>Ala (Mutant 91) (ligand)
chain: SLAADTPTACCFSYTSRQIPQNFIADYFETSSQCSKPGAIFLTKRSRQVCADPSEEWVQKYVSDLELSA
B19: LD78 Ile19>Ala (Mutant 80) (ligand)
chain: SLAADTPTACCFSYTSRQAPQNFIADYFETSSQCSKPGVIFLTKRSRQVCADPSEEWVQKYVSDLELSA

Each binder was assayed against LD78 receptor on the murine stem cell line FDCP cell mix (A4 cells) (murine) (assay: displacement of 125I-LD78 from FDCP-mix A4 cells; % of wild-type activity based on IC50).

First: B1
Second: B2
The Receptor Binding % WT of the first is lower: 3 % WT for the first, 5 % WT for the second.

Compared with B3, B4 is higher in Receptor Binding % WT: 50 % WT for the first, 162 % WT for the second.

Going from B5 to B6, the Receptor Binding % WT rises from 4.2 % WT to 47 % WT.

First: B7
Second: B8
The Receptor Binding % WT of the first is higher: 100 % WT for the first, 34 % WT for the second.

First: B9
Second: B10
The Receptor Binding % WT of the first is higher: 25 % WT for the first, 7.7 % WT for the second.

Compared with B11, B12 is lower in Receptor Binding % WT: 145 % WT for the first, 18 % WT for the second.

Compared with B13, B14 is higher in Receptor Binding % WT: 45 % WT for the first, 125 % WT for the second.

Going from B15 to B16, the Receptor Binding % WT rises from 1 % WT to 66 % WT.

Work on B17 yielded a Receptor Binding % WT of 77.4 % WT.

Target: the molecule itself
Assay: self-association; sedimentation equilibrium AUC, 150 mM PBS pH7.4

B18: no binding (tested: 0.5 mg/ml).
B19: no binding (tested: 0.5 mg/ml).
